Reference: the Immune Epitope Database (IEDB)

Experiments:
HLA-A*02:03 = assay: IEDB peptide-MHC binding, purified MHC/direct/fluorescence; filed as Kd, often an IC50 or EC50 that approximates it; ≥ and ≤ were set here for values at or beyond the usual limits of such assays; conditions: source organism: Giardia lamblia ATCC 50803
HLA-A*68:02 [1] = assay: as above; conditions: source organism: Giardia lamblia ATCC 50803
HLA-A*29:02 [2] = assay: as above; conditions: source organism: Giardia lamblia ATCC 50803
HLA-B*39:01 [3] = assay: as above; conditions: source organism: Giardia lamblia ATCC 50803
HLA-A*02:01 [4] = assay: as above; conditions: source organism: Giardia lamblia ATCC 50803
HLA-B*15:01 [5] = assay: as above; conditions: source organism: Giardia lamblia ATCC 50803
HLA-A*23:01 [6] = assay: as above; conditions: source organism: Giardia lamblia ATCC 50803
HLA-A*26:01 [7] = assay: as above; conditions: source organism: Giardia lamblia ATCC 50803
HLA-A*02:19 [8] = assay: as above; conditions: source organism: Giardia lamblia ATCC 50803
HLA-A*02:12 = assay: as above; conditions: source organism: Giardia lamblia ATCC 50803
HLA-B*27:03 [9] = assay: as above; conditions: source organism: Giardia lamblia ATCC 50803
HLA-B*46:01 [10] = assay: as above; conditions: source organism: Giardia lamblia ATCC 50803
HLA-B*18:01 [11] = assay: as above; conditions: source organism: Giardia lamblia ATCC 50803
HLA-A*03:01 [12] = assay: as above; conditions: source organism: Giardia lamblia ATCC 50803
HLA-A*24:03 [13] = assay: as above; conditions: source organism: Giardia lamblia ATCC 50803
HLA-A*11:01 = assay: IEDB peptide-MHC binding, purified MHC/competitive/fluorescence; filed as Kd, often an IC50 or EC50 that approximates it; ≥ and ≤ were set here for values at or beyond the usual limits of such assays
HLA-B*53:01 = assay: as above
HLA-B*27:05 = assay: as above
HLA-A*01:01 = assay: as above
HLA-B*07:02 = assay: as above; conditions: source organism: Giardia lamblia ATCC 50803
HLA-A*30:01 = assay: as above
HLA-B*14:02 = assay: as above
HLA-B*08:01 = assay: as above
HLA-A*66:01 = assay: as above
HLA-A*30:02 = assay: as above
HLA-B*58:01 = assay: as above
HLA-B*51:01 = assay: as above
HLA-B*44:02 = assay: as above
HLA-B*40:01 = assay: as above
HLA-A*68:02 [14] = assay: as above; conditions: source organism: Entamoeba histolytica HM-1:IMSS
HLA-A*29:02 [15] = assay: as above; conditions: source organism: Entamoeba histolytica HM-1:IMSS
HLA-B*39:01 [16] = assay: as above; conditions: source organism: Entamoeba histolytica HM-1:IMSS
HLA-A*02:01 [17] = assay: as above; conditions: source organism: Entamoeba histolytica HM-1:IMSS
HLA-B*15:01 [18] = assay: as above; conditions: source organism: Entamoeba histolytica HM-1:IMSS
HLA-A*23:01 [19] = assay: as above; conditions: source organism: Entamoeba histolytica HM-1:IMSS
HLA-B*15:17 = assay: as above; conditions: source organism: Entamoeba histolytica HM-1:IMSS
HLA-A*26:01 [20] = assay: as above; conditions: source organism: Entamoeba histolytica HM-1:IMSS
HLA-A*02:19 [21] = assay: as above; conditions: source organism: Entamoeba histolytica HM-1:IMSS
HLA-B*27:03 [22] = assay: as above; conditions: source organism: Entamoeba histolytica HM-1:IMSS
HLA-B*57:01 = assay: as above; conditions: source organism: Entamoeba histolytica HM-1:IMSS
HLA-B*46:01 [23] = assay: as above; conditions: source organism: Entamoeba histolytica HM-1:IMSS
HLA-B*18:01 [24] = assay: as above; conditions: source organism: Entamoeba histolytica HM-1:IMSS
HLA-A*03:01 [25] = assay: as above; conditions: source organism: Entamoeba histolytica HM-1:IMSS
HLA-A*24:03 [26] = assay: as above; conditions: source organism: Entamoeba histolytica HM-1:IMSS
[27] = source organism: Giardia lamblia ATCC 50803
[28] = source organism: Entamoeba histolytica HM-1:IMSS

Measured: Kd

MTFPLHFRS
0.113 µM: HLA-A*11:01; [27]
0.028 µM: HLA-A*29:02 [2]
≥ 5 µM: HLA-B*53:01; [27] | HLA-B*27:05; [27] | HLA-A*01:01; [27] | HLA-B*07:02 | HLA-A*30:01; [27] | HLA-B*14:02; [27] | HLA-B*08:01; [27] | HLA-A*66:01; [27] | HLA-A*30:02; [27] | HLA-B*58:01; [27] | HLA-B*51:01; [27] | HLA-B*44:02; [27] | HLA-B*40:01; [27]
≥ 20 µM: HLA-A*02:03 | HLA-B*39:01 [3] | HLA-A*02:01 [4] | HLA-B*15:01 [5] | HLA-A*23:01 [6] | HLA-A*26:01 [7] | HLA-A*02:19 [8] | HLA-A*02:12 | HLA-B*27:03 [9] | HLA-B*46:01 [10] | HLA-B*18:01 [11] | HLA-A*03:01 [12] | HLA-A*24:03 [13]
≤ 0.001 µM: HLA-A*68:02 [1]

NPAACSYMV
≥ 20 µM: HLA-A*02:01 [17] | HLA-B*15:01 [18] | HLA-A*23:01 [19] | HLA-B*15:17 | HLA-A*26:01 [20] | HLA-A*02:19 [21] | HLA-B*27:03 [22] | HLA-B*51:01; [28] | HLA-B*57:01 | HLA-B*46:01 [23] | HLA-B*18:01 [24] | HLA-A*03:01 [25] | HLA-A*24:03 [26]
0.232 µM: HLA-B*39:01 [16]
0.0283 µM: HLA-A*68:02 [14]
≥ 5 µM: HLA-A*11:01; [28] | HLA-B*53:01; [28] | HLA-B*27:05; [28] | HLA-A*01:01; [28] | HLA-A*30:01; [28] | HLA-B*14:02; [28] | HLA-B*08:01; [28] | HLA-A*66:01; [28] | HLA-A*30:02; [28] | HLA-B*58:01; [28] | HLA-B*44:02; [28] | HLA-B*40:01; [28]
0.122 µM: HLA-A*29:02 [15]
